According to US20160264649A1:

How the values were obtained:
Assay in all cases: cell-based or functional assay
[1] = biological target: HIV-1 MGRM-F1-006 Env (HIV-1)
[2] = biological target: HIV-1 MGRM-C-008 Env on pseudovirus (HIV-1)
[3] = biological target: HIV-1 MGRM-F1-018 Env (HIV-1)
[4] = biological target: HIV-1 MGRM-AE-004 Env (HIV-1)
[5] = biological target: HIV-1 MGRM-C-001 Env on pseudovirus (HIV-1)
[6] = biological target: HIV-1 MGRM-Chronic-B-004 Env on pseudovirus (HIV-1)
[7] = biological target: aMLV envelope (negative control pseudovirus)
[8] = biological target: HIV-1 MGRM-D-008 Env (HIV-1)
[9] = biological target: HIV-1 MGRM-G-015 Env (HIV-1)
[10] = biological target: HIV-1 6535.3 (Acute) Env on pseudovirus (HIV-1)
[11] = biological target: HIV-1 MGRM-F1-022 Env (HIV-1)
[12] = biological target: HIV-1 MGRM-C-002 Env on pseudovirus (HIV-1)
[13] = biological target: HIV-1 98CN009 Env on pseudovirus (HIV-1)
[14] = biological target: HIV-1 APV_13 Env on pseudovirus (HIV-1)
[15] = biological target: HIV-1 MGRM-C-023 Env on pseudovirus (HIV-1)
[16] = biological target: HIV-1 MGRM-C-019 Env on pseudovirus (HIV-1)
[17] = biological target: HIV-1 IAVI-C22 Env (HIV-1)
[18] = biological target: HIV-1 MGRM-D-014 Env (HIV-1)
[19] = biological target: HIV-1 MGRM-G-017 Env (HIV-1)
[20] = biological target: HIV-1 MGRM-F1-004 Env (HIV-1)
[21] = biological target: HIV-1 MGRM-G-014 Env (HIV-1)
[22] = biological target: HIV-1 MGRM-D-020 Env (HIV-1)
[23] = biological target: aMLV envelope
[24] = biological target: HIV-1 MGRM-C-017 Env on pseudovirus (HIV-1)
[25] = biological target: HIV-1 QH0692.42 (Acute) Env on pseudovirus (HIV-1)
[26] = biological target: HIV-1 98CN006 Env on pseudovirus (HIV-1)
[27] = biological target: HIV-1 94UG103 Env (HIV-1)
[28] = biological target: HIV-1 98IN022 Env on pseudovirus (HIV-1)
[29] = biological target: HIV-1 MGRM-AG-012 Env (HIV-1)
[30] = biological target: HIV-1 APV-13 Env (HIV-1)
[31] = biological target: HIV-1 MGRM-D-029 Env (HIV-1)
[32] = biological target: HIV-1 NL43 Env on pseudovirus (HIV-1)
[33] = biological target: HIV-1 MGRM-G-009 Env (HIV-1)
[34] = biological target: HIV-1 IAVI-C3 Env (HIV-1)
[35] = biological target: HIV-1 MGRM-C-020 Env on pseudovirus (HIV-1)
[36] = biological target: HIV-1 MGRM-D-011 Env (HIV-1)
[37] = biological target: HIV-1 MGRM-F1-015 Env (HIV-1)
[38] = biological target: HIV-1 92UG005 Env (HIV-1)
[39] = biological target: HIV-1 92TH021 Env (HIV-1)
[40] = biological target: HIV-1 MGRM-G-011 Env (HIV-1)
[41] = biological target: HIV-1 MGRM-F1-014 Env (HIV-1)
[42] = biological target: HIV-1 MGRM-C-009 Env on pseudovirus (HIV-1)
[43] = biological target: HIV-1 LAVIC_18 Env on pseudovirus (HIV-1)
[44] = biological target: HIV-1 MGRM-C-025 Env on pseudovirus (HIV-1)
[45] = biological target: HIV-1 NL43 Env (HIV-1)
[46] = biological target: HIV-1 MGRM-G-013 Env (HIV-1)
[47] = biological target: HIV-1 TRO.11 (Acute) Env on pseudovirus (HIV-1)
[48] = biological target: HIV-1 MGRM-F1-012 Env (HIV-1)
[49] = biological target: HIV-1 MGRM-D-024 Env (HIV-1)
[50] = biological target: HIV-1 SC422661.8 (Acute) Env on pseudovirus (HIV-1)
[51] = biological target: HIV-1 JRFL Env on pseudovirus (HIV-1)

Substance: 4E10 (antibody)
- IC50 (pseudovirus neutralization) [1]: 1.01 µg/mL
- IC50 [2]: 2.97 µg/mL
- IC50 (pseudovirus neutralization) [3]: 3.6 µg/mL
- IC50 (µg/ml), pseudovirus neutralization [4]: 1.27 µg/mL
- IC50 [5]: 5.66 µg/mL
- IC50 [6]: 3.7 µg/mL
- IC50 (pseudovirus neutralization) [7]: > 50 µg/mL
- IC50 (µg/ml), pseudovirus neutralization [8]: 42.9 µg/mL
- IC50 (µg/ml), pseudovirus neutralization [9]: 1.07 µg/mL
- IC50 [10]: 1.23 µg/mL
- IC50 (pseudovirus neutralization) [11]: 1.01 µg/mL
- IC50 [12]: 18.2 µg/mL
- IC50 [13]: 2.46 µg/mL
- IC50 [14]: 7.33 µg/mL
- IC50 [15]: 1.95 µg/mL
- IC50 [16]: 3.49 µg/mL
- neutralization IC50 [17]: 1.02 µg/mL
- neutralization IC90 [17]: 16.4 µg/mL
- IC50 (µg/ml), pseudovirus neutralization [18]: 3.24 µg/mL
- IC50 (µg/ml), pseudovirus neutralization [19]: 1.14 µg/mL
- IC50 (pseudovirus neutralization) [20]: 2.74 µg/mL
- IC50 (µg/ml), pseudovirus neutralization [21]: 13.7 µg/mL
- IC50 (µg/ml), pseudovirus neutralization [22]: > 50 µg/mL
- neutralization IC50 [23]: > 50 µg/mL
- neutralization IC90 [23]: > 50 µg/mL
- IC50 [24]: 1.47 µg/mL
- IC50 [25]: 12.7 µg/mL
- IC50 [26]: 1.91 µg/mL
- neutralization IC50 [27]: 9.7 µg/mL
- neutralization IC90 [27]: > 50 µg/mL
- IC50 [28]: 0.53 µg/mL
- IC50 (µg/ml), pseudovirus neutralization [29]: 0.86 µg/mL
- neutralization IC50 [30]: 3.8 µg/mL
- IC50 (µg/ml), pseudovirus neutralization [31]: 5.3 µg/mL
- IC50 [32]: 4.67 µg/mL
- IC50 (µg/ml), pseudovirus neutralization [33]: 1.34 µg/mL
- neutralization IC50 [34]: 5 µg/mL
- IC50 [35]: 2.8 µg/mL
- IC50 (µg/ml), pseudovirus neutralization [36]: 0.91 µg/mL
- IC50 (pseudovirus neutralization) [37]: 0.53 µg/mL
- IC50 (µg/ml), pseudovirus neutralization [38]: 7.46 µg/mL
- neutralization IC50 [38]: 8.86 µg/mL
- neutralization IC90 [38]: > 50 µg/mL
- IC50 (µg/ml), pseudovirus neutralization [39]: 1.17 µg/mL
- neutralization IC50 [39]: 1.9 µg/mL
- neutralization IC90 [39]: 23.5 µg/mL
- IC50 (µg/ml), pseudovirus neutralization [40]: 1.44 µg/mL
- IC50 (pseudovirus neutralization) [41]: 7.36 µg/mL
- IC50 [42]: 0.56 µg/mL
- IC50 [43]: > 50 µg/mL
- IC50 [44]: 5.58 µg/mL
- neutralization IC50 [45]: 4.95 µg/mL
- neutralization IC90 [45]: 29.6 µg/mL
- IC50 (µg/ml), pseudovirus neutralization [46]: 1.15 µg/mL
- IC50 [47]: 1.39 µg/mL
- IC50 (pseudovirus neutralization) [48]: 0.37 µg/mL
- IC50 (µg/ml), pseudovirus neutralization [49]: 3.6 µg/mL
- IC50 [50]: 6.35 µg/mL
- IC50 [51]: 18.9 µg/mL

Substance: 1496_C09 (PG9) (TCN-109) (antibody)
- IC50 (pseudovirus neutralization) [1]: 1.45 µg/mL
- IC50 (pseudovirus neutralization) [3]: 0.03 µg/mL
- IC50 (µg/ml), pseudovirus neutralization [4]: 0.01 µg/mL
- IC50 (µg/ml), pseudovirus neutralization [8]: 6.86 µg/mL
- IC50 (µg/ml), pseudovirus neutralization [9]: 1.51 µg/mL
- IC50 [10]: 0.22 µg/mL
- IC50 (pseudovirus neutralization) [11]: 0.06 µg/mL
- IC50 [13]: 1.07 µg/mL
- IC50 [15]: 0.51 µg/mL
- IC50 [16]: 0.01 µg/mL
- neutralization IC50 [17]: 24.9 µg/mL
- IC50 (µg/ml), pseudovirus neutralization [19]: 0.03 µg/mL
- IC50 (µg/ml), pseudovirus neutralization [21]: 6.32 µg/mL
- IC50 (µg/ml), pseudovirus neutralization [22]: 2.03 µg/mL
- IC50 [24]: 1.52 µg/mL
- neutralization IC50 [27]: 0.173 µg/mL
- neutralization IC90 [27]: 3.37 µg/mL
- IC50 [28]: 0.006 µg/mL
- IC50 (µg/ml), pseudovirus neutralization [29]: 1.37 µg/mL
- IC50 [32]: 0.32 µg/mL
- IC50 (µg/ml), pseudovirus neutralization [33]: 4.9 µg/mL
- neutralization IC50 [34]: 12.9 µg/mL
- IC50 (µg/ml), pseudovirus neutralization [36]: 0.06 µg/mL
- IC50 (µg/ml), pseudovirus neutralization [39]: 0.09 µg/mL
- neutralization IC50 [39]: 0.111 µg/mL
- neutralization IC90 [39]: 1.99 µg/mL
- IC50 (µg/ml), pseudovirus neutralization [40]: 0.19 µg/mL
- IC50 (pseudovirus neutralization) [41]: 0.01 µg/mL
- IC50 [43]: 0.1 µg/mL
- IC50 [44]: 0.17 µg/mL
- IC50 [47]: 5.43 µg/mL
- IC50 (pseudovirus neutralization) [48]: 0.01 µg/mL
- IC50 (µg/ml), pseudovirus neutralization [49]: 0.03 µg/mL
- IC50 [50]: 0.79 µg/mL
